This is an account of results in paper doi:10.1101/2020.01.06.896597 (bioRxiv, 2020).

Series [1] deals with the molecule itself. The series is described as follows: cryo-EM 2D class averages.
The series “cryo-EM structure” concerns the molecule itself. The series is described as follows: cryo-EM structure.

B1: ACAT1-ΔNTD (domain or fragment, human, UniProt P35610 111-550, looked up)
chain: DLRAPPEQGKIFIARRSLLDELLEVDHIRTIYHMFIALLILFILSTLVVDYIDEGRLVLEFSLLSYAFGKFPTVVWTWWIMFLSTFSVPYFLFQHWATGYSKSSHPLIRSLFHGFLFMIFQIGVLGFGPTYVVLAYTLPPASRFIIIFEQIRFVMKAHSFVRENVPRVLNSAKEKSSTVPIPTVNQYLYFLFAPTLIYRDSYPRNPTVRWGYVAMKFAQVFGCFFYVYYIFERLCAPLFRNIKQEPFSARVLVLCVFNSILPGVLILFLTFFAFLHCWLNAFAEMLRFGDRMFYKDWWNSTSYSNYYRTWNVVVHDWLYYYAYKDFLWFFSKRFKSAAMLAVFAVSAVVHEYALAVCLSFFYPVLFVLFMFFGMAFNFIVNDSRKKPIWNVLMWTSLFLGNGVLLCFYSQEWYARQHCPLKNPTFLDYVRPRSWTCRYVF
Regarding B1, the stoichiometry N – broadly, the number of molecules, sites or subunits per partner or assembly – in series [1] is 2.

B2: full-length (FL) human ACAT1 (enzyme, UniProt P35610 1-550, looked up)
chain: MVGEEKMSLRNRLSKSRENPEEDEDQRNPAKESLETPSNGRIDIKQLIAKKIKLTAEAEELKPFFMKEVGSHFDDFVTNLIEKSASLDNGGCALTTFSVLEGEKNNHRAKDLRAPPEQGKIFIARRSLLDELLEVDHIRTIYHMFIALLILFILSTLVVDYIDEGRLVLEFSLLSYAFGKFPTVVWTWWIMFLSTFSVPYFLFQHWATGYSKSSHPLIRSLFHGFLFMIFQIGVLGFGPTYVVLAYTLPPASRFIIIFEQIRFVMKAHSFVRENVPRVLNSAKEKSSTVPIPTVNQYLYFLFAPTLIYRDSYPRNPTVRWGYVAMKFAQVFGCFFYVYYIFERLCAPLFRNIKQEPFSARVLVLCVFNSILPGVLILFLTFFAFLHCWLNAFAEMLRFGDRMFYKDWWNSTSYSNYYRTWNVVVHDWLYYYAYKDFLWFFSKRFKSAAMLAVFAVSAVVHEYALAVCLSFFYPVLFVLFMFFGMAFNFIVNDSRKKPIWNVLMWTSLFLGNGVLLCFYSQEWYARQHCPLKNPTFLDYVRPRSWTCRYVF
With B2, in the series “cryo-EM structure”, the “stoichiometry N” value is 4.
